Results on one molecule are retold here after US20160272995A1, “MANIPULATION OF PLASMODESMAL CONNECTIVITY TO IMPROVE PLANT YIELD AND FITNESS” (UNIVERSITY OF DELAWARE, priority 2013, published 2016).

The test system of one assay is plasmodesmata (PD). The following applies: Arabidopsis plants; cited from earlier work.
The test system of a further assay is Pseudomonads. The conditions noted are these: Arabidopsis plants; cited from earlier work.
Assay [1] concerns Arabidopsis thaliana. Description: Drought test: 2 weeks water withdrawal, then rewatering. Format: in vivo. The conditions noted are these: rewatering after 2 weeks water withdrawal. As to the method:
All plant lines were grown for 2 weeks with water prior to the 2 week water withdrawal. (a) Plants having a severe knock down of PDLP5 (pdlp5-1) and PDLP5-m5 plants bolt faster than plants overexpressing PDLP5 (OX) and wild type (WT) plants. (b) Plants overexpressing PDLP5 (OX) revive 3 days post rewatering (DPR). (c) Plants overexpressing PDLP5 (OX) fully recover and 10 days post rewatering (DPR); wild type (WT) plants are dead, and PDLP5-m5 plants continue to survive.
(a) Plants overexpressing PDLP5 (OX), wild type (WT) plants, plants having a severe knock down of PDLP5 (pdlp5-1), and three different PDLP5-m5 plants (T3-4-2, T2-6, and T2-26) which were all grown a different number of days as required to reach same rosette size before water withdrawal. Plants having the same rosette size are referred to as “same day bolting samples.” (b) Same day bolting samples of plants overexpressing PDLP5 (OX), wild type (WT) plants, plants having a severe knock down of PDLP5 (pdlp5-1), and three different PDLP5-m5 plants (T3-4-2, T2-6, and T2-26) at the end of a 2 week water withdrawal. (c) Same day bolting samples of plants overexpressing PDLP5 (OX) and two different PDLP5-m5 plants (T3-4-2 and T2-26) recover fully 3 days post rewatering.
Transgenic T1 plants were selected on basta+plates and homozygous T2 lines were identified by segregation test on T3 plants. For the drought test, homozygous lines were grown in soil for the 2 weeks with watering followed by 2 weeks of water withdrawal. Tolerance to drought stress of the PDLP5-m5 was assessed by the plant growth or death upon resuming watering.
PDLP5-m5 plants were evaluated by exposing them to drought conditions. PDLP-m5 plants were grown under normal conditions with water, water was withdrawn for 2 weeks, and rewatering was commenced. Plants having a severe knock down of PDLP5 (pdlp5-1) and PDLP5-m5 plants bolt faster than plants overexpressing PDLP5 and wild type plants (FIG. 13A). […] The early bolting of the PDLP5-m5 plants appeared to affect plant revival. Therefore, the experiment was repeated using same day bolting samples. Briefly, plants having the same rosette size were used, regardless of the number of days required to achieve that rosette size (FIG. 14A).

Assay [2] has as its system Arabidopsis thaliana. Description: Primary and lateral root quantification in seedlings. Format: in vivo. As to the method: (A) Lateral root development in wild type (WT) plants, plants having a severe knock down of PDLP5 (pdlp5-1), and plants overexpressing PDLP5 (PDLPOE) expressing DR5:GUS. Arrowheads indicate tertiary roots. (B) Quantification of total lateral root numbers (both emerged and unemerged secondary [2°], tertiary [3°], and quaternary [4°] roots). n≧30 per seedling set. Bars, standard deviation. Stars, significance determined by student T-test (P<0.01). (C) A diagram depicting several stages of LRP emergence. (D) Percent distribution of LRP stages, recorded at root bend at indicated time points following gravistimulation at 3 dpg. n≧20 seedlings per set.
(A-C) GUS-stained 11-day-old seedlings expressing DR5:GUS in wild type (WT) Col-0 plants (A), plants having a severe knock down of PDLP5 (pdlp5-1) (B), and plants overexpressing PDLP5 (PDLPOE) (C). Size bar in (A), common to (B) and (C). (D) Measurement of primary root length in 10-day-old wild type (WT) seedlings, seedlings having a severe knock down of PDLP5 (pdlp5-1), and seedlings overexpressing PDLP5 (PDLPOE). n=30 seedling per line. (E) Measurement of % emerged lateral root (LR) of total secondary roots in 10-day-old WT, pdlp5-1, and PDLP5OE seedlings. n=30 seedling per line. (F) Measurement of average secondary root length per seedling in 7-day-old WT and pdlp5-1. n=28 seedlings per line.
To investigate the importance of PD function during lateral root emergence, PDLP5 loss-of-function and over-expressing lines were characterized. […] Furthermore, this reduction in secondary root development was reiterated in later stages of root branching, with PDLP5OE showing reduced tertiary root occurrence (26% and 50% of WT at 8 and 11 day post germination [dpg], respectively). […] Lateral roots were 1.4-fold longer on average in pdlp5-1 than WT (FIG. 17F) at 7 dpg and later. […] Given the overall increase in average secondary root length in pdlp5-1, we conclude that the higher occurrence of tertiary and quaternary root formation can be attributed to an accelerated secondary root growth.
All Arabidopsis thaliana genotypes were in the Col-0 genetic background, except for shy2-2 in Ler, and iaa28-1 in Ws. Seedlings were grown vertically in 0.5X MS agar under a continuous light at 22° C. Plants in soil were grown in a 16 hr light, 22° C. All the genetic crosses (see Table 5) were selfed, and genotyped to identify homozygous mutations when necessary. Genomic DNA was isolated from segregating F2 plants followed by PCR analyses using gene-specific primers (see Table 6).
GUS solution (100 mM sodium phosphate buffer, pH 7.0, 10 mM EDTA, 0.5 mM each potassium ferrocyanide and potassium ferricyanide, 1.24 mM X-Gluc, and 0.1% Triton X-100) was vacuum-infiltrated into plant tissue for five minutes, then removed from vacuum and incubated in 37° C. for 3 to 12 hrs, followed by a series of ethanol washes. Stained tissues were imaged using Zeiss Axioskop 2 microscope. LRP were quantified by counting both the emerged LR and unemerged LR, as determined by DRS::GUS staining of the primordia, under a dissecting microscope (1.2× magnification). LRP stages were determined by examining ethanol-cleared, GUS-stained tissue using 40× water lens.

B1: PDLP5OE: Wild-type A. thaliana PDLP5 protein (SEQ ID NO:4) constitutively overexpressed in plants under the 35S promoter (protein, listed as Arabidopsis thaliana)
chain: MIKTKTTSLLCFLLTAVILMNPSSSSPTDNYIYAVCSPAKFSPSSGYETNLNSLLSSFVTSTAQTRYANFTVPTGKPEPTVTVYGIYQCRGDLDPTACSTCVSSAVAQVGALCSNSYSGFLQMENCLIRYDNKSFLGVQDKTLILNKCGQPMEFNDQDALTKASDVIGSLGTGDGSYRTGGNGNVQGVAQCSGDLSTSQCQDCLSDAIGRLKSDCGMAQGGYVYLSKCYARFSVGGSHARQTPGPNFGHEGEKGNKDDNGVGKTLAIIIGIVTLIILLVVFLAFVGKCCRKLQDEKWCK
On to B1, for which the “movement between cells reduced by” value with plasmodesmata (PD) was 70%. For the same molecule, the immunity to infection result in the assay with Pseudomonads is “innate immunity to Pseudomonads infection”. In addition, in the assay on Arabidopsis thaliana [1], the outcome upon rewatering was “recovered after rewatering”. Besides, in the assay on Arabidopsis thaliana [2] (8 dpg), the “secondary roots, % of WT number” value turned out to be 66% and the “tertiary root occurrence, % of WT” value was 26%. In addition, in the assay with Arabidopsis thaliana [2] (10-day-old seedlings), the “emerged LRP among total secondary roots, % of that found in WT” value turned out to be 50%. In addition, in the assay on Arabidopsis thaliana [2] (11 dpg), the “secondary roots, % of WT number” value is 77% and the “tertiary root occurrence, % of WT” value stood at 50%. The “reduction in the primary root length” value in the assay on Arabidopsis thaliana [2] (ten-day-old seedlings, compared to WT) is recorded as “approximately 30%”.
